The subject of assay [1] is estrogen receptor expressing human breast cancer cell lines. The class given is cell-based.
Method: Profiles for untreated (filled) and estrogen treated cells (unfilled) infected with the Ad-25ERE-GFP adenovirus are shown.
To assay estrogen responsiveness, cells were cultured in estrogen-free medium (phenol red-free RPMI1640 or DMEM/F12 medium (Life Technologies, Rockville, Md.) supplemented with charcoal/dextran treated fetal bovine serum (cd FBS; 5%) (Hyclone, Logan, Utah)) for 7 days. The cells were tested in fresh estrogen-free medium or fresh estrogen-free medium supplemented with 10 nM estradiol or 10 μM 4-hydroxy-tamoxifen. Cells were collected after 16-24 hours of hormone treatment.
For fluorescence microscopy analysis breast cancer cell lines were infected with Ad-25ERE-GFP virus at a MOI (multiplicity of infection) of ˜100 and treated with hormones as described above.
By infecting mammary epithelial cells with the Ad-25ERE-GFP adenovirus, it was possible to isolate ER+ estrogen responsive cells based on GFP expression. […] Ad-25ERE-GFP was then used to infect various estrogen receptor expressing human breast cancer cell lines in the presence of estrogen or tamoxifen or in the absence of hormone (FIG. 1B).
The test system of assay [2] is ER+ breast cancer cell lines (MCF-7 and T47D). The assay can be described thus: Colony assay after transfection with lipocalin 2 expression vector (pCEP4-lipocalin-HA), hygromycin selection. In kind it is cell-based, human. As to conditions: lipocalin 2 expression vs control vector pCEP4; 2 weeks hygromycin selection; crystal violet staining. The source says:
(§1) FIG. 3D is a bar graph showing the numbers of colonies that were obtained after drug (hygromycin) selection (for 2 weeks) of estrogen receptor (“ER”) expressing (“Positive”) MCF-7 and T47D breast cancer cells, estrogen receptor non-expressing (“Negative”) BT549 and MTA-MB-435S breast cancer cells, and estrogen receptor non-expressing (“Negative”) MCF10A normal immortalized mammary epithelial cells that had all been transfected with either a control expression vector (“CEP”) or an expression vector containing cDNA encoding human lipocalin 2 fused at its C-terminus to a double hemagglutinin tag (“LIPO”). The experiments were carried out in T25 tissue culture flasks and the data are expressed as the number of “Colonies/T25 flask”.
(§2) cDNA encoding human lipocalin 2 was amplified by PCR and the isolated PCR product was cloned into the pCEP4 (Invitrogen, Carlsbad, Calif.). The resulting vector (pCEP4-lipocalin-HA) expresses lipocalin-2 with a double hemaglutinnin (HA) tag at its C-terminus. For colony assays, cells were transfected with pCEP4 (control) or pCEP4-lipocalin-HA using FuGene6 (Roche, Indianapolis, Ind.). Transfectants were selected in hygromycin-containing medium for 2 weeks after which colonies were visualized by crystal violet staining. Expression of the lipocalin 2-HA fusion protein was confirmed by western blot analysis (using an antibody specific for HA (Covance, Richmond, Calif.)) of cell lysate and medium from T47D cells transfected with pCEP4 or pCEP4-lipocalin-HA constructs.
(§3) Lipocalin 2 is a secreted protein and could thus be a paracrine factor expressed by NER+ cells that affects the surrounding mammary epithelial cells. In order to determine the effect of lipocalin 2 expression on mammary cell growth, colony growth assays were performed in various ER− and ER+ breast cancer cell lines and in MCF10A cells (FIG. 3D). […] In MCF10A immortalized ER− normal mammary epithelial cells a small increase in the number of colonies (18 vs. 7 colonies) was also observed following lipocalin 2 transfection (FIG. 3D). […]

The test system of assay [3] is ER- breast cancer cell line BT549. The description is as above. The class given is cell-based, human. As to conditions: lipocalin 2 expression vs control vector pCEP4, 2 weeks hygromycin selection.
From the text: as §1, §2, §3

In assay [4] the test system is MCF10A immortalized ER- normal mammary epithelial cells. Described as above. In kind it is cell-based, human. To be noted: following lipocalin 2 transfection (control vector: 7 colonies), T25 flask.
From the text: as §1, §2, §3

For another assay, the system named is MCF10A cells. The assay can be described thus: Colony assay with lipocalin 2 conditioned medium. In kind it is cell-based, human. To be noted: conditioned medium from cells expressing lipocalin 2 vs GFP, seven days of culture. On the procedure: (§4) FIG. 4 is a bar graph showing the number of colonies that were obtained after culturing estrogen receptor expressing 747D breast cancer cells and estrogen receptor non-expressing MCF10A normal immortalized mammary epithelial cells with conditioned medium from […] cells recombinantly expressing either GFP (“GEP”) or lipocalin 2 (“LIPO”). The experiments were carried out in the wells of 6-well tissue culture plates. Data, which are expressed as “Colonies/well”, from experiments carried out in medium supplemented with 5% fetal bovine serum (“5% FBS”) or 0.2% fetal bovine serum (“0.2% FBS”) are shown.
(§5) For experiments to test for cell growth regulatory activity in secreted lipocalin 2, conditioned medium was generated by infecting COS7 cells with replication-defective adenoviruses expressing either GFP or lipocalin 2. Filtered medium collected 3-4 days after infection was applied to T47 or MCF10A cells. Colonies were visualized by crystal violet staining after seven days of culture.
(§6) Lipocalin 2 is a secreted protein and could thus be a paracrine factor expressed by NER+ cells that affects the surrounding mammary epithelial cells. In order to determine the effect of lipocalin 2 expression on mammary cell growth, colony growth assays were performed in various ER− and ER+ breast cancer cell lines and in MCF10A cells (FIG. 3D). […]

The next assay relates to T47D cells. As to the kind of experiment: Colony assay with lipocalin 2 conditioned medium. The class given is cell-based, human. To be noted: conditioned medium from cells expressing lipocalin 2 vs GFP, seven days of culture. On the procedure:
as §4, §5, §6

In the case of `C[C@]12CC[C@@H]3c4ccc(O)cc4CC[C@H]3[C@@H]1CC[C@@H]2O` [estrogen, estradiol], the GFP expression result in assay [1] is listed as “high GFP expression”.

B1: lipocalin 2: Secreted human protein; expressed from pCEP4-lipocalin-HA with C-terminal double hemagglutinin tag, or supplied in conditioned medium (protein, UniProt P80188 21-198, looked up)
Neutrophil …: QDSTSDLIPAPPLSKVPLQQNFQDNQFQGKWYVVGLAGNAILREDKDPQKMYATIYELKEDKSYNVTSVLFRKKKCDYWIRTFVPGCQPGEFTLGNIKSYPGLTSYLVRVVSTNYNQHAMVFFKKVSQNREYFKITLYGRTKELTSELKENFIRFSKSLGLPENHIVFPVPIDQCIDG
modifications: C-terminal double HA tag
notes: Secreted human protein; expressed from pCEP4-lipocalin-HA with C-terminal double hemagglutinin tag, or supplied in conditioned medium
Consider B1, for which the colony numbers entry in assay [2] is on record as “dramatically suppressed colony numbers”; in assay [3] it was “small but significant increase in colony numbers”. The same molecule gave a number of colonies in assay [4] of 18 colonies. Also, the “growth (colonies) with exogenous lipocalin 2” value in the assay with MCF10A cells was “enhanced”; in the assay with T47D cells it was “inhibited”.

The record behind these values is patent US20050064420A1, “Methods for identifying, isolating, and controlling the growth of estrogen-responsive cells” (Dana-Farber Cancer Institute, Inc., priority 2001, published 2005).
